B1: TPR t1 (parent)
chain: GACCAAUCUGCCCUCAGAGCUCGAGAACAUCUUCGGAUGCAGAGGAGGCAGGCUUCGGUGGCGCGAUAGCGCCAACGUCCUCAACCUCCAAUGCAUCCCACCACAUGAUGAUGCCUGAAGAGCCUUGGUUUUUUG

In the data set the parent is B1. Kind of data set: polymerase ribozyme fitness, log enrichment relative to wild type (log ratio); higher = more active; in vitro selection for triplet polymerase activity. In short, it runs like this:
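One round of in vitro selection, in triplicate, was applied to PCR-built, transcribed mutant libraries of each subunit of a heterodimeric triplet polymerase ribozyme. The steps were annealing with a biotinylated primer, partner subunit and triplets, incubation frozen at −7 °C, gel excision of extended constructs, streptavidin-bead capture and RT-PCR. Fitness is the logarithm, base 2, of genotype enrichment over wild-type enrichment from inverse-variance-weighted replicate averages of Illumina-sequenced inputs and outputs, keeping genotypes with ≥10 input reads and ≥1 read per output.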
With U38G A91C, the “polymerase ribozyme fitness (log ratio)” value is -2.88.
Under A46U C79U C82U G110U G135A stands -3.2; under G71A C79U A83G U129G, -3.32.
In the case of U9A C49G G93C G120A U131A, the “polymerase ribozyme fitness (log ratio)” value was 0.443.
Under A27G C56A C72U G120U stands -2.12; under G47A G113U, -2.8; under A50C U106A G110A G127C, -3.34.
Under A46C C56G stands -1.37.
Regarding A90C C97A C99G G113A G122U, the “polymerase ribozyme fitness (log ratio)” value was -7.3.
Then G10C G61A G93C, with -1.11; and A50C U55C U106G, with -2.2.
Under C40U C115A stands -0.771; under A43U G44A G61C A84C A90U C102U C123U, -4.59; under C73U C76U C97U U112A U129A, -1.35.
Then C11U C34U G71A A121C U129C, with -6.13; and G39A G48C A50U C94U C114G, with -4.57; and C56G G71U, with -3.27.
Regarding C8A U59C A105G C123A, the “polymerase ribozyme fitness (log ratio)” value is -2.08.
Under C28U C49G A91U U106A stands -5.37; under C8G G57A G117A A119U G135U, -2.27.
For the variant C12A A18U C56U C79U C115U A118C U131C, the “polymerase ribozyme fitness (log ratio)” value is -3.23.
Then C31G C123U, with -7.18; and U7G G36U U96C C104U, with -3.09; and U21A G60U, with -0.289.
Under C62U U78G C86U stands -0.761.
Under C62U A84C stands -1.06; under C98U U112A, -1.61.
On to C73A C101U G110U, for which the “polymerase ribozyme fitness (log ratio)” value is -1.75.
On to C8G C40G G71U U81G C82U, for which the “polymerase ribozyme fitness (log ratio)” value was -0.811.
Then C13A A43U G60C C88A, with -4.2; and G10C A37U C72A, with -0.966; and C3A C8G C12A C13U C20G G35C C70G A118G C124A U132A, with -6.19.
Turning to G36A G71A C94A, the “polymerase ribozyme fitness (log ratio)” value was -5.5.
Then A37U A75U G120C, with 1.14; and C72A U81C C82A, with -1.12; and C8A G10C A50U C72U, with -1.02.
Then C4U G51U A121C, with -1.96; and A18U G39U G61U C97U U130A, with -4.49; and C11G U134A, with 0.54.
Under C13A C22U stands -4.99; under G60U A90U, -1.1.
In the case of G63U C94G, the “polymerase ribozyme fitness (log ratio)” value was -1.4.
For G45A C70G C85A, the “polymerase ribozyme fitness (log ratio)” value is -4.9.
With U81G A84C G113A, the “polymerase ribozyme fitness (log ratio)” value was -3.43.
Under C4G C11G C40A G60A C101G U106C stands -4.19; under G69A C73U U96G, -3.55; under G17A G48C, -4.15.
Consider C53A A84U U125A, for which the “polymerase ribozyme fitness (log ratio)” value was -1.27.
Under G10C A26C A37U U78C A83U U87A C115G G127A stands -6.88.
Under C12G G19A G63U C79G U81G U112C G117U stands -7.76; under C11G G51C, -4.46.
Then C49G C64A G77U A83U G120U, with -6.63; and G61C C94U U130A U131G, with -3.54; and C53U C56U, with -0.207.
For A74G C80U, the “polymerase ribozyme fitness (log ratio)” value was -1.69.
Under U9G C56U G61U stands -4.53; under A103C G107A U112G G113A, -6.72.
Then C12A A27U G63A, with -5.2; and G45U G120C, with -0.784; and C40U G60C C82U A90G A95U C97A C123G, with -7.02.
Under C3A U14G C62A A119U G120A stands -2.14.
Take C73U G122A: the “polymerase ribozyme fitness (log ratio)” value was -0.427.
Then C3U G10A G45U A74C U81A, with -2.98; and A41U C86G A95U, with -3.96; and C11U A26U G52C, with -3.53.
Then A2U A46U G47C G71A U132C, with -3.81.
Take G51C C79A: the “polymerase ribozyme fitness (log ratio)” value was -4.29.
Then G61A A100U, with -0.262.
With C12A C56A C80U A84U C89U A119G C123A, the “polymerase ribozyme fitness (log ratio)” value is -0.802.
Then A16U C56A, with -1.97.
Under G48U G63A C79G stands -6.13; under U81A A121C, 0.745.
Under C70A G117U A121C U130C stands -4.1; under G45A G52C C72A C123G, 0.812.
Take C101U U109G A111U: the “polymerase ribozyme fitness (log ratio)” value is -4.63.
Then C11U G120U G122U, with 1.38; and C53U C94A A121C, with 0.891; and U9G C34U, with -3.92.
Under A37U G48A G61C A105U A111U stands -6.69; under C82G C101U C115A U125A, -1.73.
Consider U9G C11G C94U, for which the “polymerase ribozyme fitness (log ratio)” value was -4.64.
U81A C115G: the “polymerase ribozyme fitness (log ratio)” value was -2.4.
Consider C34U G113C, for which the “polymerase ribozyme fitness (log ratio)” value is -4.95.
Then U9A U32A A37U A46C C56A C79A A111G, with -7.29; and C11U G57U, with -0.202; and A5U G51U, with -3.03.
As to C11A U21A C40U G47A C49A G57A G58C G61U, the “polymerase ribozyme fitness (log ratio)” value was -5.81.
Then C15A A29G, with -2.66; and C114U G117C, with -7.14.
Under G10U A27C U112C stands -1.73.
Under G51C C72A U129G stands -4.58; under A29C A41U C64U, -3.54.
Take G19A G61C: the “polymerase ribozyme fitness (log ratio)” value was -4.27.
Then A50U G113U, with -2.75.
Then G35U G63U C101A C115U, with -5.79.
Then C4A C13A U54G C56A G77A, with -4.73; and C56U U96C C99U, with -3.29.
Regarding U106G A119G, the “polymerase ribozyme fitness (log ratio)” value turned out to be 0.3.
Regarding C4A A18G C89A A100C G113A C124U, the “polymerase ribozyme fitness (log ratio)” value is -4.48.
Consider C102G U112A, for which the “polymerase ribozyme fitness (log ratio)” value is -5.7.
Then G10A G58C A111G, with 0.287; and C62U A84C C89A C123U, with -1.62; and A41U G51A U87G U112A A119G, with -4.72.
Under A6U G71A stands -0.461; under A90C C97U G113A, -2.12; under G60A G117C A121U, -2.7.
Under C40U C53U C70U C72U C97U stands -1.36; under A46U C62G, -3.18.
For the variant G47U C64U A121U, the “polymerase ribozyme fitness (log ratio)” value was determined as 0.804.
Under C11G G61A C64U G120U stands -0.77; under C70A C124A, -0.104.
Under A43G G71C U87G stands -4.59.
Under G10U C56A U59C U112A stands -0.649; under C12U G23A G120A, -3.8; under G45A G93U, -1.91.
Consider A46G G47U A119G, for which the “polymerase ribozyme fitness (log ratio)” value is -0.516.
Then G36C U78G, with -1.1; and A43C U87C, with -1.86; and C53G G63C, with -1.3.
Under C20U C73U stands -1.6; under U9G C85U, -0.222; under C12G G61C, -0.968.
Under U9C C12G G60C U78C stands -1.6; under A100U U129A, -0.992.
Consider A50G C88A C104U G113U U129C, for which the “polymerase ribozyme fitness (log ratio)” value is -4.06.
Then C8G U14G G61C A66C, with -2.35; and U54A C86U C124U, with 1.14.
Then U9A G19C A41U, with -1.63; and G48A G61A U130A, with -0.668.
With G48U G52U G63C, the “polymerase ribozyme fitness (log ratio)” value is -2.05.
Under C20A U112C stands -1.35; under A2C C72U, -2.38.
Then C12G C20G C79U C82U A91U G107C G117A, with -4; and A29U U126C, with -2.33.
A41U G113C: the “polymerase ribozyme fitness (log ratio)” value was -3.1.
A6G C8G U30C A41G G60U: the “polymerase ribozyme fitness (log ratio)” value was -3.67.
Then C20U A26C G42U U54G C64U G122A C124A, with -6.48; and C13G C82U U131A, with -2.89; and C20A C101U, with -3.43.
Under A18G C70U A95U C124A stands -4.13; under U33G C34G A103U, -6.38; under G42A G60U C82U U112G G127C, -3.6.
Then U9A A16U G63A U129C, with -1.11.
For the variant C15G G71A U81C, the “polymerase ribozyme fitness (log ratio)” value is -4.61.
As for C15A A26G G110A G113U, the “polymerase ribozyme fitness (log ratio)” value was -6.
Turning to C15U C79A, the “polymerase ribozyme fitness (log ratio)” value was -2.26.
Under C70U C102U U132A stands -2.52.
Under G19A C101U stands -3.3; under A41U A90C C115G, -4.39; under C3U C22A U54C C72U C79U C82U A100U, -6.11.
Then G45U C97U U112A, with -0.0204; and U14G C101U U126G, with -4.96.
C94G C123U: the “polymerase ribozyme fitness (log ratio)” value was 0.403.
Under A74C C79A U125A stands -1.75; under C22A C34G, -6.64; under U54G C101U U106A U116G, -3.87.
Then A2U A37U C62U C72U U78A C124G, with -0.559; and C15G C49G G61A C85A G110A, with -3.95.
Under U59G U92G G110A U133C stands -4.4; under G93C C102A, -2.96.
For C3U C73U A100C, the “polymerase ribozyme fitness (log ratio)” value is -1.36.
Under A18U G39U C73U C85G stands -4.26; under U30A G48C C124A, -5.2.
Turning to A2C C101A U129A, the “polymerase ribozyme fitness (log ratio)” value is -2.79.
Then A2C A105C, with -4.23; and C8U G113C, with -1.19; and G120A G122U, with 0.476.

These data come from the RNAGym collection of RNA variant scans (doi:10.1073/pnas.2313332121).
